From PMC9638898 come the findings set out here.

The data set concerns en-10C-R4 (engrailed homeodomain-ligase 10C-tetra-arginine) (artificial fusion). In words: fluorescence anisotropy. As to conditions: 20 mM HEPES pH 7.5, 150 mM NaCl, 100 uM 2-mercaptoethanol, 120 uM ZnCl2, 100 ug/ml BSA, 24 C, 90 min. (Fluorescence polarisation rises when a labelled molecule tumbles more slowly, as on binding a larger partner.)

The sequence “GUUCAGAGUUCUACAGUCACUAACGUUCGGGGAACCCAGGUGUUGGUCUUUGACGUAGAGUAUAAGA / TGGGTTCCCCGAACGT [RNA/DNA duplex (ligated product RNA + FAM-DNA splint #2)]” returned a Kd of 460 nM.

The term Kd denotes a measure of binding affinity in units of concentration. A low value points to a tighter complex.
